Results from PMC11871066, “Structure-based discovery of hydrocarbon-stapled paxillin peptides that block FAK scaffolding in cancer” (Nature Communications, 2025).

Assays:
Assay in all cases: SPR
[1] = target: T1, Peptide 2013, unstapled version of 1907, P49023; settings: chain shown with the change; right panel; peptide concentration not given
T1 chain: NL

[2] = target: T2, Stapled peptide 1907, P49023; settings: chain shown with the change; right panel; peptide concentration not given
T2 chain: NL

[3] = target: T3, Paxillin LD2 peptide (141-…-153); settings: chain shown with the change, right panel, peptide concentration not given
T3 chain: NLSELDRLLLELN

ratio to parent [1]: 33
ratio to parent [2]: 238
B1: Biotinylated AviTag FAK FAT protein, Q05397 I936E; L994E (protein)
chain: MAAAYLDPNLNHTPNSSTKTHLGTGMERSPGAMERVLKVFHYFESNSEPTTWASIIRHGDATDVRGIIQKIVDSHKVKHVACYGFRLSHLRSEEVHWLHVDMGVSSVREKYELAHPPEEWKYELRIRYLPKGFLNQFTEDKPTLNFFYQQVKSDYMLEIADQVDQEIALKLGCLEIRRSYWEMRGNALEKKSNYEVLEKDVGLKRFFPKSLLDSVKAKTLRKLIQQTFRQFANLNREESILKFFEILSPVYRFDKECFKCALGSSWIISVELAIGPEEGISYLTDKGCNPTHLADFTQVQTIQYSNSEDKDRKGMLQLKIAGAPEPLTVTAPSLTIAENMADLIDGYCRLVNGTSQSFIIRPQKEGERALPSIPKLANSEKQGMRTHAVSVSETDDYAEIIDEEDTYTMPSTRDYEIQRERIELGRCIGEGQFGDVHQGIYMSPENPALAVAIKTCKNCTSDSVREKFLQEALTMRQFDHPHIVKLIGVITENPVWIIMELCTLGELRSFLQVRKYSLDLASLILYAYQLSTALAYLESKRFVHRDIAARNVLVSSNDCVKLGDFGLSRYMEDSTYYKASKGKLPIKWMAPESINFRRFTSASDVWMFGVCMWEILMHGVKPFQGVKNNDVIGRIENGERLPMPPNCPPTLYSLMTKCWAYDPSRRPRFTELKAQLSTILEEEKAQQEERMRMESRRQATVSWDSGGSDEAPPKPSRPGYPSPRSSEGFYPSPQHMVQTNHYQVSGYPGSHGITAMAGSIYPGQASLLDQTDSWNHRPQEIAMWQPNVEDSTVLDLRGIGQVLPTHLMEERLIRQQQEMEEDQRWLEKEERFLKPDVRLSRGSIDREDGSLQGPIGNQHIYQPVGKPDPAAPPKKPPRPGAPGHLGSLASLSSPADSYNEGVKLQPQEISPPPTANLDRSNDKVYENVTGLVKAVEEMSSKIQPAPPEEYVPMVKEVGLALRTLLATVDETIPLLPASTHREIEMAQKLLNSDEGELINKMKLAQQYVMTSLQQEYKKQMLTAAHALAVDAKNLLDVIDQARLKMLGQTRPH
ratio to parent [3]: 4
response ([3]; plateau of the sensorgram near the end of injection (about 75 s), parent: est. 58, read off a plot): 14 RU
